From patent publication CN115925945A (GUANGDONG FEIPENG PHARMACEUTICAL CO LTD, dated 2023) come the findings set out here.

The experiment deals with T1, 人TIGIT (全长, 表达于CHO工程细胞CHO-hTIGIT) (human, UniProt Q495A1 22-244).
T1 construct: whole, on cells
T1 sequence (looked up): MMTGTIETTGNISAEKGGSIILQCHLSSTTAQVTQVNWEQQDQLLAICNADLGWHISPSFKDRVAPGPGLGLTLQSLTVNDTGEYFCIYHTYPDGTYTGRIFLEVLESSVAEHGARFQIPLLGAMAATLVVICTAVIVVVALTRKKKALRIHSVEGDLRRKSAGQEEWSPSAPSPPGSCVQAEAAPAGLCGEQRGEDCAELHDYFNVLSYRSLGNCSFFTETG
In words: in vitro binding activity after stress tests (acid, base, freeze-thaw, high temperature).

B1: 抗TIGIT人源化抗体15H10L3 (R0774), hIgG1亚型 (antibody, V domains shown)
VH: QVQLVQSGAEVKKPGSSVKVSCKASGYSFTSYWMNWVRQAPGQGLEWIGMIRPSDSETRLNQMFKDRVTITVDKSTSTAYMELSSLRSEDTAVYYCAGIHDYGHGAYWGQGTLVTVSS
VL: DIQMTQSPSSLSASVGDRVTITCRASENIYSNLAWYQQKPGKSPKLLVYAASHLPDGVPSRFSGSGSGTDYSLTISSLQPEDFATYYCQHFWGTPRTFGQGTKLEIKR
notes: Full-length chains printed for R0774 (hIgG1 with K214R/D356E/L358M, human kappa); Humanized from TIGIT-5 murine mAb; also called 15H10L3-hIgG1
As to B1, the binding result is “binds”.
